From US20240261333A1 (published 2024)
Blank lines part the entries; values can stand above or below the binder they belong to.

Legend:
YBX1 = target: T1, YBX1 (human, UniProt P67809 2-324); experiment: co-IP with anti-FLAG, C-FLAG B3GNT2, mass spectrometry
T1 construct: also called NP_004550.2

RPL34 = RPL34 (human, UniProt P49207 2-117); experiment: anti-FLAG co-IP from lysate of N-FLAG B3GNT2 cells, mass spectrometry
Experimental: (§1) Cells were plated in 10-cm cell culture dishes and grown to 60-80% confluency. For each condition, two biological replicates were harvested for co-IP. Cells were washed with PBS and 4 mL of lysis buffer (20 mM HEPES, 1% Triton X-100, 150 mM NaCl, 1 mM EDTA, and 10% glycerol) containing protease inhibitor cocktail was added. Cells were scraped and lysate was incubated at 4° C. under rotary agitation for 1 h. Lysate was centrifuged at 14,000×g for 10 min at 4° C. Supernatant was transferred to a new tube and an aliquot was taken as the input. […] For Western blots, 10 μg/mL Chicken Anti-FLAG (Aves labs ET-DY100) and IgY control (R&D Systems AB-101-C) antibodies were biotinylated (Thermo Fisher Scientific 90407) and added to the respective conditions. Lysates with antibodies were incubated at 4° C. under rotary agitation overnight. For each mL of lysate, 50 μL of Pierce Protein A/G Magnetic Beads (Mass spectrometry; Thermo Fisher Scientific 88803) or Pierce Streptavidin Magnetic Beads (Western blot; Thermo Fisher Scientific 88817) was washed twice with lysis buffer. Lysates with antibodies were added to the beads and incubated at 4° C. under rotary agitation for 4 h. Beads were washed with lysis buffer 3 times and resuspended in lysis buffer for storage.
(§2) Magnetic beads were resuspended in 100 mM Tris pH 7.8, reduced, alkylated and digested with trypsin at 37° ° C. overnight. This solution was subjected to solid phase extraction to concentrate the peptides and remove unwanted reagents followed by injection onto a Shimadzu HPLC with fraction collector. Eight fractions were collected and after concentration were injected on a Waters NanoAcquity HPLC equipped with a self-packed Aeris 3 μm C18 analytical column 0.075 mm by 20 cm, (Phenomenex). Peptides were eluted using standard reverse-phase gradients. The effluent from the column was analyzed using a Thermo Orbitrap Elite mass spectrometer (nanospray configuration) operated in a data dependent manner for 54 minutes. The resulting fragmentation spectra were correlated against the known database using Proteome Discover 1.4 (Thermo Fisher Scientific).

DNAJA3 = target: T2, DNAJA3 (human, UniProt Q96EY1-2 66-453, limits assumed); experiment: as above
T2 construct: also called NP_001128582.1 (+1)
T2 sequence (looked up): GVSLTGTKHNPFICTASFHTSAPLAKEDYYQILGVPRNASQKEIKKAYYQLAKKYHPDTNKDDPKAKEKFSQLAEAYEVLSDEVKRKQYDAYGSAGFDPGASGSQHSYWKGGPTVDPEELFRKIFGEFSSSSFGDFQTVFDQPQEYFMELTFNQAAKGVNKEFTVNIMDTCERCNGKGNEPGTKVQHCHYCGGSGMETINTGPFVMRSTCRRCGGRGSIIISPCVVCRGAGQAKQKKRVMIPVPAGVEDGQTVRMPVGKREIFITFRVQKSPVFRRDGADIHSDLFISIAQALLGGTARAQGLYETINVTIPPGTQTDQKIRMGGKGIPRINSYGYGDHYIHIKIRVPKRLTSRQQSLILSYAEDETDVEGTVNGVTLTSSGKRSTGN
Experimental: as §1, §2

HDGFL2 = target: T3, HDGFL2 (human, UniProt Q7Z4V5 1-671); experiment: as above
T3 construct: also called NP_001001520.1 (+4)
Experimental: as §1, §2

RPL17 = RPL17 (human, UniProt P18621 2-184); experiment: co-IP with anti-FLAG, C-FLAG B3GNT2, mass spectrometry
SRSF6 = target: T4, SRSF6 (human, UniProt Q13247 1-344); experiment: as above
T4 construct: also called NP_006266.2
T4 sequence (looked up): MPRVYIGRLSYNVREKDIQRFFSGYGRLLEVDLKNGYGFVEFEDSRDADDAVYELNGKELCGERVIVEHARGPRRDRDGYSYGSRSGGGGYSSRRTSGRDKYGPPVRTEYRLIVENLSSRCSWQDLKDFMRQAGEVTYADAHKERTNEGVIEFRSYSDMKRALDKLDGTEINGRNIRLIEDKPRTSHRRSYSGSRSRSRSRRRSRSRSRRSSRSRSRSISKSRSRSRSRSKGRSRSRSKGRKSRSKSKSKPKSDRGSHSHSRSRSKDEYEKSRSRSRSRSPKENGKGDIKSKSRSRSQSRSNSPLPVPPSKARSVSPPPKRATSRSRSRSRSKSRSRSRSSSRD

TGM1 = target: T5, TGM1 (human, UniProt P22735 1-817, limits assumed); experiment: as above
T5 construct: also called NP_000350.1
T5 sequence (looked up): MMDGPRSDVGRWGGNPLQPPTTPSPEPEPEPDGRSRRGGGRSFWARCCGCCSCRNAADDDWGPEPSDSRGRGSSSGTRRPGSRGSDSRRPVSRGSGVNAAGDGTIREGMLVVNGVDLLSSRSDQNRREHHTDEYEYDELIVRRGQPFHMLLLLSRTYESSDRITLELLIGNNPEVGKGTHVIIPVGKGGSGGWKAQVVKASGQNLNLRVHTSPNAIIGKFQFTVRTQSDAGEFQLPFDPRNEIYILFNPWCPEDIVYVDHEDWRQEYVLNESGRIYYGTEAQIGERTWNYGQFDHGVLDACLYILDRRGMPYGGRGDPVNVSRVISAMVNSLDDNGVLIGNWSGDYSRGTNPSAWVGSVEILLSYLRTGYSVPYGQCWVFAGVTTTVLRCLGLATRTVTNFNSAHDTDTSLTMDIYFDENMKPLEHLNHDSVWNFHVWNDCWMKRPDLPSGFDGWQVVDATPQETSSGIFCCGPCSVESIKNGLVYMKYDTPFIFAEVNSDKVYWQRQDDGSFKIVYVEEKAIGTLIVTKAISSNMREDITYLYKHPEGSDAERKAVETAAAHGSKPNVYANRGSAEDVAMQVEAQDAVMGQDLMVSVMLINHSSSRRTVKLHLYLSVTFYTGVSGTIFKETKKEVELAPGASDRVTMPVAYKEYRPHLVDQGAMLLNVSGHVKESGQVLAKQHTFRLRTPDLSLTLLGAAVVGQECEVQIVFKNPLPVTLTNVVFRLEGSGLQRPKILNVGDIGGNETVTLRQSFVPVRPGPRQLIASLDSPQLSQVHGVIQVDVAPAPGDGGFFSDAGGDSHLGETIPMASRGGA

T1 sequence (P67809 2-324 limits assumed): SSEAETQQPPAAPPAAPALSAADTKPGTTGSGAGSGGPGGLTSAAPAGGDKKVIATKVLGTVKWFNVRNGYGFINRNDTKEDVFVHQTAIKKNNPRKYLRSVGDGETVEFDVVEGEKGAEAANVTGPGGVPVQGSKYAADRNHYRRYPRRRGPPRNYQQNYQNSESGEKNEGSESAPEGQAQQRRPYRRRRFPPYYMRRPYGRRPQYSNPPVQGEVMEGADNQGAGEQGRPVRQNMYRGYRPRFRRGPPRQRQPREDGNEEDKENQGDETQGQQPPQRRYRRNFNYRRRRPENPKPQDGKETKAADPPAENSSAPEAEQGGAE
T3 sequence (Q7Z4V5 whole entry): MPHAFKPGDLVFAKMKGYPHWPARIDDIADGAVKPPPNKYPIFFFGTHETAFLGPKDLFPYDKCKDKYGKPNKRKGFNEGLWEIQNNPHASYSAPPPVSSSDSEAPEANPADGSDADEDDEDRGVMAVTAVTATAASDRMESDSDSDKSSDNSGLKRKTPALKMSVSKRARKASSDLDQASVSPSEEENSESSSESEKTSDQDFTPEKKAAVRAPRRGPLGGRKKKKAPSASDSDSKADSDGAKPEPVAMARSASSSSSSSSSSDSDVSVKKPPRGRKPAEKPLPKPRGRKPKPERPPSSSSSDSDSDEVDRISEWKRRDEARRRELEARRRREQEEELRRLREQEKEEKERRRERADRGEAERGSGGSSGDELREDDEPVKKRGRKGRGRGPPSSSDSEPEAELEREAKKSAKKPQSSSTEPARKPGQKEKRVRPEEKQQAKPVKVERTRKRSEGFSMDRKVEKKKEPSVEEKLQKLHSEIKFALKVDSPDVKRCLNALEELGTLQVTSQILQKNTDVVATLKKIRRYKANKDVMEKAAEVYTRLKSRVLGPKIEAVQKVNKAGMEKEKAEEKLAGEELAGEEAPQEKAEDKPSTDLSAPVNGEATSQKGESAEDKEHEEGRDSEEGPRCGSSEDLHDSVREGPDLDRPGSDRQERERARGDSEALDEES

- co-IP mass spectrometry count (YBX1): 9
B1: C-terminal FLAG tagged B3GNT2 (enzyme, human, UniProt Q9NY97 1-397, looked up)
chain: MSVGRRRIKLLGILMMANVFIYFIMEVSKSSSQEKNGKGEVIIPKEKFWKISTPPEAYWNREQEKLNRQYNPILSMLTNQTGEAGRLSNISHLNYCEPDLRVTSVVTGFNNLPDRFKDFLLYLRCRNYSLLIDQPDKCAKKPFLLLAIKSLTPHFARRQAIRESWGQESNAGNQTVVRVFLLGQTPPEDNHPDLSDMLKFESEKHQDILMWNYRDTFFNLSLKEVLFLRWVSTSCPDTEFVFKGDDDVFVNTHHILNYLNSLSKTKAKDLFIGDVIHNAGPHRDKKLKYYIPEVVYSGLYPPYAGGGGFLYSGHLALRLYHITDQVHLYPIDDVYTGMCLQKLGLVPEKHKGFRTFDIEEKNKNNICSYVDLMLVHSRKPQEMIDIWSQLQSAHLKC
notes: FLAG-tagged ORF overexpressed in cells; pulled down from lysate with mouse anti-FLAG; also called C-FLAG B3GNT2; C-term flag; not shown: C-terminal FLAG tag

- co-IP mass spectrometry count (RPL34): 0
- co-IP mass spectrometry count (DNAJA3): 0
- co-IP mass spectrometry count (HDGFL2): 0
B2: N-terminal FLAG tagged B3GNT2 (enzyme, human, UniProt Q9NY97 1-397, looked up)
chain: MSVGRRRIKLLGILMMANVFIYFIMEVSKSSSQEKNGKGEVIIPKEKFWKISTPPEAYWNREQEKLNRQYNPILSMLTNQTGEAGRLSNISHLNYCEPDLRVTSVVTGFNNLPDRFKDFLLYLRCRNYSLLIDQPDKCAKKPFLLLAIKSLTPHFARRQAIRESWGQESNAGNQTVVRVFLLGQTPPEDNHPDLSDMLKFESEKHQDILMWNYRDTFFNLSLKEVLFLRWVSTSCPDTEFVFKGDDDVFVNTHHILNYLNSLSKTKAKDLFIGDVIHNAGPHRDKKLKYYIPEVVYSGLYPPYAGGGGFLYSGHLALRLYHITDQVHLYPIDDVYTGMCLQKLGLVPEKHKGFRTFDIEEKNKNNICSYVDLMLVHSRKPQEMIDIWSQLQSAHLKC
notes: Bait of the co-IP; pulled down from cell lysate with mouse anti-FLAG antibody; also called N-FLAG B3GNT2; N-term FLAG; not shown: N-terminal FLAG tag

B3: C-terminal FLAG tagged B3GNT2 (enzyme, human, UniProt Q9NY97 1-397, looked up)
chain: MSVGRRRIKLLGILMMANVFIYFIMEVSKSSSQEKNGKGEVIIPKEKFWKISTPPEAYWNREQEKLNRQYNPILSMLTNQTGEAGRLSNISHLNYCEPDLRVTSVVTGFNNLPDRFKDFLLYLRCRNYSLLIDQPDKCAKKPFLLLAIKSLTPHFARRQAIRESWGQESNAGNQTVVRVFLLGQTPPEDNHPDLSDMLKFESEKHQDILMWNYRDTFFNLSLKEVLFLRWVSTSCPDTEFVFKGDDDVFVNTHHILNYLNSLSKTKAKDLFIGDVIHNAGPHRDKKLKYYIPEVVYSGLYPPYAGGGGFLYSGHLALRLYHITDQVHLYPIDDVYTGMCLQKLGLVPEKHKGFRTFDIEEKNKNNICSYVDLMLVHSRKPQEMIDIWSQLQSAHLKC
notes: FLAG-tagged ORF overexpressed in A375 cells; pulled down from the lysate with mouse anti-FLAG; also called C-FLAG B3GNT2; C-term flag; not shown: C-terminal FLAG tag
- co-IP/MS count, C-term flag (RPL17): 0
- co-IP/MS count, C-term flag (SRSF6): 4
- co-IP/MS count, C-term flag (TGM1): 8
